From the domain aggregation screens of Martell et al. (2025) come the findings set out here.

Bounds are passed on as bounds.

The nature of the data set: soluble fraction after stress (log2 fold change); higher = more stays soluble; pooled small domains, quantitative proteomics. As to conditions: stress: 50 degC. The essentials:
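After stress at 50°C, the amount of each protein still soluble was measured. This was done on pooled custom libraries of small protein domains, using high-throughput quantitative proteomics. The figure given is a base-two log fold change and stands for aggregation propensity, with higher values meaning more protein stays in solution.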
Regarding “HMEYSKSIKRLREDKNLTVEELAKRLSLDVEEIQKAEDGEDVDQKTLEAIARYFGVQYDSLVEGTAKSK”, the “soluble fraction (log2)” value was found to be 0.0998.

With “HMGGASVTDQQIRDFVSAHTDDPMAIYKAAVANGISSARLAQVTGISIADIEAFVRKNNLPSF”, the “soluble fraction (log2)” value amounted to 0.0932.

As for “HMAPDDTAVWSAFIGWFRTAPDGPNPLGAYAAKLGEEGLDAAEVGRRMTVIVRLFAEKPEGAEVFYDRTYA”, the “soluble fraction (log2)” value was -0.875.

Turning to “HMRVPTVIGMDEGTAKATLANASLKSNIVYESDETKENGKVLSQGIEQNKEVKAGTTVEIKVNKIE”, the “soluble fraction (log2)” value was -0.0202.

Take “HMNETLKQIRINALQYSEKDMATKLGLPLSEYKEIENDKPLNFTLLIRLSQAVGKTIDDLLNAQ”: the “soluble fraction (log2)” value stood at 0.0115.

As to “HMDALTLSIDAQGALYWNGQPVSRELAAQRFVEAAAQRPQPELHLRADQNVAYRHVAMTLADASRAGLTR”, the “soluble fraction (log2)” value is -0.0244.

In the case of “HMPKTATIVIDLNYADAKEIVENLQTILAGETKDISVAPHPSANQIIASGDRWEVENISTIIKQLDR”, the “soluble fraction (log2)” value worked out at 0.00694.

As for “HMQTKMVYSDLVNSIKSEQVSSMLVSGNTVTVTLTNGDKAKVKIPSLDTLQADVGKEMNDQMDKGTLKQE”, the “soluble fraction (log2)” value amounted to 0.181.

With “HMQLDDDQKEELILKLIDSLDTTKKGAPLTELAREAAKSNIGESELEEITTSLLDKGLVYEPTIGKMKR”, the “soluble fraction (log2)” value is 0.216.

For the sequence “HMDNEIMYPIQINGKVRAELFVSTERAMDKQYVLEQAKANEKIQGYLEGNRLVKEIFVPKRIVNLVIAP”, the “soluble fraction (log2)” value is 0.197.

Take “HMAMDVKEVLLPGVGLRYEFDNSDGDRIGVIAKRSGDFEVVRYTAADRDAAQPMFRLTDEEADALAQILGA”: the “soluble fraction (log2)” value came to 0.0786.

As for “HMLKNKSTGNINETKAILELALNHSHFKVFDNRDMTVTFKNLATQFTTMQRILVQMFFPLPAGVELIIE”, the “soluble fraction (log2)” value is ≥ 0.62.

With “HMGSNENTIREYFDSLIASASKREIMDANPTMSQRTVERILQKLQAEGYVEKIGAARSTRYRRA”, the “soluble fraction (log2)” value was -0.178.

As for “HMEEGKVKRMAMDMVDAFYDKVSAMVDDNNDLGRSVVDAWDDEEENPPEYMLDDETRAILVNAGKIEPE”, the “soluble fraction (log2)” value came out at 0.0748.

As for “HMDGRVQATAEKLRAALDRLARSSVGSPMIERQLTVAALAREARVGRNAIYANHRDILDELIRVRQQRRA”, the “soluble fraction (log2)” value was found to be 0.144.

Turning to “HMSVTDDQLRVFTNKSGTKIKAKIVEVSDDKVKLIRDDNKKFIVPINSLSEEDQDYLRDWVSNEAVEP”, the “soluble fraction (log2)” value turned out to be 0.0333.

As for “HMFFFILNKGAKSGGEITHAVLNGSIVSKPAGWDAFHGLVLAKEKLSSEEIQRQMKELGVEMEIVPL”, the “soluble fraction (log2)” value was -0.58.

With “HMNIEIIEVQEESTPSEISKIISTESTKIIEDLLNLGVMASLETPLKNQDIEKLLEGYGYIVDIKP”, the “soluble fraction (log2)” value was -0.372.

Consider “HMANMTAKQINMFGDKLSRDKDFQSYYIAKSGDSREQYAQDIKGKLLDPFYVNAWMPYLEKIGFVPS”, for which the “soluble fraction (log2)” value worked out at 0.00797.

Consider “HMDRDQNVEEGQRSLKSEMGRFGLLIANMDDLAERVNYGNAEDMYAAIGAGDLRLMQVVHAAEEMLG”, for which the “soluble fraction (log2)” value worked out at 0.127.

With “HMSDTGQELHDALNMARRTLTILEEQAAGYTALTIPARLVLELEEKRKDVVRLETQIRSAATGTPG”, the “soluble fraction (log2)” value is -0.202.

For the sequence “HMQPETIEDATNLYLEAARATLQLIEQNNVIARDVKRLLEHLDNDMARIETLLAEMLSRRDHWLRHIH”, the “soluble fraction (log2)” value is -0.12.

Turning to “HMRGLGDLEPVDSLGKIRIDDGHMVLAFGRHKGRHLSEVQAEDPRYIHWLLSPKGIEDVEAREKVKVYLEG”, the “soluble fraction (log2)” value is -0.0024.

Turning to “HMNNDFIVKSTDSHKVNLRSQPDTHADIIKRLDDHTIVEKLKTVRKNWYLVQLKDTTTQGYVHKSQLERV”, the “soluble fraction (log2)” value is -0.0413.

As for “HMSIYYQIYESLKKDLSNNLYKPGEKLPSENVLSKRFGVNRHTIRRSLQLLKNEGILFSKRGSGIIVHD”, the “soluble fraction (log2)” value was -2.32.

Take “HMPTTRPEAEAHYETHQRYHDLQIDVEGREAFKVATGSLTLVQEFDEKDDYDLSIPTPRSPAILLTT”: the “soluble fraction (log2)” value was 0.0218.

“HMKRMSKKQLSAVIEKYFSSQPGVTLTLKDIFRNLHLDTHPLKMIALDILEEMSWDDVIMKVSDTSYALNT”: the “soluble fraction (log2)” value amounted to 0.281.

Consider “HMDKSRPVLRVGDSGDWVSKLQTALLEFGYRVAVDGVFGEHTKSAVVHFQNGRRLIADGVVGNLTWDALL”, for which the “soluble fraction (log2)” value was -2.31.

Regarding “HMHHDQQQITAELARIARNGLPGLTADNAIISRLDALNLLINIHDDRGADATPLRGLLPAIADELLRLT”, the “soluble fraction (log2)” value was -0.273.

Regarding “HMSVTRELMLVKVKVTPEQRAGVSAIVDIFRANIIDVGKESMIIELTGNKSKLEAFIDLLDGYEILELART”, the “soluble fraction (log2)” value is -0.861.

Consider “HMDALPLIQLEKEIKDFISQGQKINAIKHYRNVMDRDFGTTISLKLAKYTVDALAQNIKVDLTKGYDQ”, for which the “soluble fraction (log2)” value is -0.475.

“HMTLNTQLFTWKKGVRVGEDDQGNIYYRTKDDKRRWVIFTGETEATKVSPDWHGWLHRTWATPPNK”: the “soluble fraction (log2)” value was -2.39.

Consider “HMVDSLTIGRRIRQLRTERGMTLEELAAAVGRAPSQLSMIENGRREPKLTLLQAIARALGSTLDALLE”, for which the “soluble fraction (log2)” value was -0.116.

Turning to “HMIPNPMTDRELEVLGLLASGKTYKQVARALDLSQSTVRNHLHNVYHKLNVVDRAQAVIVSRENGW”, the “soluble fraction (log2)” value is -0.289.

Regarding “HMKRRSLQVGDIVQVRSLNVKGEVVSIGKNEVVVAVGRLQMRAGFDDLDFKERPKEEREVESV”, the “soluble fraction (log2)” value is -0.143.

As to “HMSYIGEEKAKSIAVSNVKGAGTNNVVKVEFDYDDGRAVYEVKVVYNAMEYEFEIDASNGKILSRDAESIY”, the “soluble fraction (log2)” value is -0.309.

Consider “HMITETIGANIKTLRDKFRMSQQDLASKMNTARPVISNWENGKTEPSSSQLLKLAKIFDTSTDKILGNV”, for which the “soluble fraction (log2)” value was found to be 0.163.

On to “HMSPDLNEVEEKVFRALNGVESMHVNKLGIELNLPVSELFFTLLELEMKNVVKALPGGMYKL”, for which the “soluble fraction (log2)” value is -1.95.

As for “HMGVSLNELAYRRFKQALVTLSYKPGEYLNTAQVMNDLDMGRTPINQAIHRLANEGLLQVIPRKGVMVS”, the “soluble fraction (log2)” value is -1.79.

In the case of “HMIILYTDEQQRIIDRLNEFIGEQPSQNEAAKLLGISAPILTNLRKGTYTGTVDKFMNKLAAYFNIKADLG”, the “soluble fraction (log2)” value is -1.05.

For “HMSEQVQLQAQVEDDLIGKRLDQVVAQLFPDYSRSRLQGWIKDGSLTVDGESRRPRDKMMGGEVVRVEATL”, the “soluble fraction (log2)” value came out at 0.0984.

Turning to “HMSGAQIQQLLESRAPQPGMNPDMIVRRKTYMNNVFNALKGALLRVANGSSPEEVKTEVDAAIQVDPDKL”, the “soluble fraction (log2)” value turned out to be 0.0889.

“HMEKLPRYILPGVPKVKSINISSALDGLVQDYSREFNISQKDIFQIALVEFFKKYGYHNAVKAVL”: the “soluble fraction (log2)” value is -0.314.

In the case of “HMTDVRFIDIPVTEHHPWNGMKVRDLQLPPGTLLVFLSHPGEKNTVPHGETVLRSGDVLVLGATAYTGQ”, the “soluble fraction (log2)” value is -0.0558.

As for “HMHSRLEDIPGIGPRRRAMLLRHFGGLAELKAAGVEEIARVEGINMALAQRLWRALHGVPDPT”, the “soluble fraction (log2)” value was -0.339.

On to “HMRSQLALVVRTGESQRLDNFLVNNLAWKSRNRLQGLIREGLVTVNGEKTKASRRVHLDDLVEIHL”, for which the “soluble fraction (log2)” value is -1.25.

Turning to “HMGDLKSLIQATMDDAGISIKPDAMDYLISHLGSDRLTTRAELDKLILYAGADDKLDLDSVVELVG”, the “soluble fraction (log2)” value is -0.0746.

Turning to “HMVAAITDLPVKSVNGRQMYYYVVRKGETVYSLTHTLGITHDRLVKANRSVEDGLRAGQILYFPVSEFG”, the “soluble fraction (log2)” value was -1.42.

On to “HMNMTDVLVVNQTVRGGTQITESMLSVKKVDKSSLPDNYLKASLKDEVVGKYFDLGLTSGGVLTKDNISVS”, for which the “soluble fraction (log2)” value worked out at 0.00597.

Consider “HMPKHHIESVIPENFAGERLDKVLAVLWGTFSRAQLTRWIRDGSLLLDGHKVKPNTKVDGSEKIVLQAEVA”, for which the “soluble fraction (log2)” value is -0.891.

Take “HMNMEPNWLKWAKQLAALAQNGLTYSDNPYEIERYEHIRRIAAEMMAEGFELDTKTILELFPREKG”: the “soluble fraction (log2)” value is -2.05.

On to “HMETADREILLREIREIINERVDYNKDITDDEMKELVMNTVFERSRQQYMSIQDKQEIIQAIFNSMR”, for which the “soluble fraction (log2)” value came to 0.126.

For the sequence “HMIKVAANESNRSDVLEIVRLFRVRVVDVNPESLTIEATGAEGKIDALLGLLEHYGVIELVRSGAVAVT”, the “soluble fraction (log2)” value is -0.435.

On to “HMEVLTEPKVQSIDTHGEKSTFVIESPNPLQPDEIAKLVGADGISVRVDRTWLKSHRDSTWTYSILTVS”, for which the “soluble fraction (log2)” value was -0.00748.

As for “HMQDELSSSVIEEAVVVLLLRAANIDGKKDEQEIEAIKRLIIQQFNYDEEKADILITSASEK”, the “soluble fraction (log2)” value is -0.218.

Turning to “HMAEWLLVQLTNGNWFYGEVIEKTDATIVLNTDILGKVSIQKLDIRRSISGPLTAAKRQEIEDSERAKD”, the “soluble fraction (log2)” value was -0.0179.

Turning to “HMDDFTEVLLQYLKDHDGYSSIHDKTDAETIYNTFGVSKKTFKKAVGDLYKKRLIVLEEEGIRLLG”, the “soluble fraction (log2)” value is -0.0665.

Consider “HMPKNEHETKAIGNQTGGRVFLFLNTDNINRDYNMYISKQVKFVREISQEYYGKVAVFEDLYGNLWDLIE”, for which the “soluble fraction (log2)” value was found to be 0.149.

For the sequence “HMKAPPLTDREKEILRWVAAGLQNKEIAHKLGISLATVRNHIHNILEKLDVHSKLEAVSLAFRQGWVS”, the “soluble fraction (log2)” value is -0.0741.

With “HMDANLGEIFKVYEQEIGALTPFVREEMLDAIDHYPRDWILDAIRESAKSNARNWKYTLAILKRWKAEG”, the “soluble fraction (log2)” value was -0.312.

Regarding “HMSGEVLTAVVPETASGERLDKVLPQIFPPYSRSQLQTWLKEGRVTLDREIPAARLAVIGGETLRLEVPSL”, the “soluble fraction (log2)” value is -0.145.

Turning to “HMNAMKPVLTVSLGVHTDSLSRRLNEEGIIYRWQQAASEQLLLVDSESSSERIAELIHDWRLEQSSS”, the “soluble fraction (log2)” value is -0.0169.

As for “HMVANDQILNQYGISDREAEIIGLLIEGLSNQQIAKQLYISPNTVKTHIKNIYAKVGVNNRLQLFSLLK”, the “soluble fraction (log2)” value was -0.173.

Take “HMGNIYKALLGKLEKQLGFLPEGTKLPPEQELAEKFGVSKPTLRRALAELAVRGIIVKQNGIGSVVAGS”: the “soluble fraction (log2)” value was -0.142.

On to “HMSILTELDIGDKVEVVAGPFKGIQANITRIEPVRKEVTVILLDAPYQLPVTVDADYLKIIQKS”, for which the “soluble fraction (log2)” value is -0.155.

“HMNGELSQRQWQILRLIAQGLSNEQMARQLFVAPSTIKTHINHLYAKLGVRTRAEAQAIARQKLMA”: the “soluble fraction (log2)” value is -0.619.

In the case of “HMSGSPREQAESEYRKAIAAVNQGRVSEATESLRAALRLDAFQVAARQLLVKLLLEAKNQDEAIQVLR”, the “soluble fraction (log2)” value is -0.463.

As for “HMTKAGVDAWTRGDYAAAVKEWQAQAAKGDADAIFNLGQAFKLGKGVPQDLIKAEQLFGQAAA”, the “soluble fraction (log2)” value is 0.154.
